± gives the standard deviation of the averaged measurements.
Each sequence was assayed on Saccharomyces cerevisiae (assay: protein stability index of tFT-peptide fusion (C-terminal peptide) (PSI (0-1 scale)); higher = more stable (slower turnover)). Details: genetic background: das1 deletion; temperature: 30 C.
Experimental: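 MPS profiling in S. cerevisiae of the yeast C-terminome library: the last 12 aa of each annotated ORF are fused to the C-terminus of a sfGFP-mCherry timer, after a GGGS linker. Cells are FACS-sorted into 8 mCherry/sfGFP bins and deep-sequenced. PSI runs from 0 (unstable) to 1 (stable); wild type and das1Δ backgrounds, two technical replicates each.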

Question: With IQTINEVRTNYM [RSE1 C-terminal 12 aa] as the sequence, how does the protein stability index read?
Answer: The protein stability index was 0.69 ± 0.041.

Question: With IRDILKLGHPTR [GYP8 C-terminal 12 aa] as the sequence, how does the protein stability index read?
Answer: The protein stability index was 0.699 ± 0.043.

Question: With IREFPEYFAAQA [RPL10 C-terminal 12 aa] as the sequence, how does the protein stability index read?
Answer: Its protein stability index is 0.682 ± 0.015.

Question: How did the protein stability index turn out when IRKYGYNLAAYT [YLR462W C-terminal 12 aa] was run?
Answer: Its protein stability index is 0.6649 ± 0.00076.

Question: With “IRRYPFLWIPFL [YMR316C-B C-terminal 12 aa]” as the sequence, how does the protein stability index read?
Answer: Its protein stability index is 0.709 ± 0.04.

Question: How did the protein stability index turn out when “IRYSMPYRLASN [YLR264C-A C-terminal 12 aa]” was run?
Answer: The protein stability index was 0.6856 ± 0.0022.

Question: For ISKKVFGNKLHQ [MTM1 C-terminal 12 aa], which protein stability index is on record?
Answer: Its protein stability index is 0.709 ± 0.0014.

Question: For ISLLSQFVYKGK [EXO1 C-terminal 12 aa], which protein stability index is on record?
Answer: The protein stability index was 0.7 ± 0.016.

Question: Which protein stability index does the source give for ISQWREWIDEKL [SRP102 C-terminal 12 aa] here?
Answer: The protein stability index was 0.679 ± 0.025.

Question: Which protein stability index does the source give for ITKQKALDYHYL [CBS2 C-terminal 12 aa] here?
Answer: Its protein stability index is 0.698 ± 0.0089.

Question: ITSKPPATVEWE [GUA1 C-terminal 12 aa] was tested. Which protein stability index did it give?
Answer: Its protein stability index is 0.695 ± 0.01.

Question: IYKYCCCCFCCC [YCK3 C-terminal 12 aa] was tested. Which protein stability index did it give?
Answer: The protein stability index was 0.6598 ± 0.0038.

Question: For KALRELQAEMGL [SNF7 C-terminal 12 aa], which protein stability index is on record?
Answer: The protein stability index was 0.696 ± 0.0095.

Question: With KASNGHIELIGE [CRF1 C-terminal 12 aa] as the sequence, how does the protein stability index read?
Answer: The protein stability index was 0.674 ± 0.002.

Question: With KDAFLKELGLQN [PRD1 C-terminal 12 aa] as the sequence, how does the protein stability index read?
Answer: The protein stability index was 0.69 ± 0.013.

Question: KDEVTDDMQLEV [JLP2 C-terminal 12 aa] was tested. Which protein stability index did it give?
Answer: The protein stability index was 0.6997 ± 0.002.

Question: KDSKNGASTLTS [YSW1 C-terminal 12 aa] was tested. Which protein stability index did it give?
Answer: The protein stability index was 0.691 ± 0.041.

Question: KDVETLSVSDEK [SEO1 C-terminal 12 aa] was tested. Which protein stability index did it give?
Answer: Its protein stability index is 0.686 ± 0.021.

Question: KEALLTRLEHMI [SWC7 C-terminal 12 aa] was tested. Which protein stability index did it give?
Answer: Its protein stability index is 0.682 ± 0.015.

Question: Which protein stability index does the source give for KEEEGSFNNVIG [PRE2 C-terminal 12 aa] here?
Answer: The protein stability index was 0.702 ± 0.012.

Question: For KEFQNSDIADLY [SGV1 C-terminal 12 aa], which protein stability index is on record?
Answer: Its protein stability index is 0.714 ± 0.01.

Question: How did the protein stability index turn out when KFFLTISADVSF [YNL057W C-terminal 12 aa] was run?
Answer: The protein stability index was 0.6369 ± 0.0022.

Question: For KFRKDEDKSVKQ [TAN1 C-terminal 12 aa], which protein stability index is on record?
Answer: Its protein stability index is 0.68521 ± 0.00053.

Question: KGDNITLITSAD [SME1 C-terminal 12 aa] was tested. Which protein stability index did it give?
Answer: The protein stability index was 0.688 ± 0.0079.

Question: For KHKNYLSFNFTK [YLL065W C-terminal 12 aa], which protein stability index is on record?
Answer: The protein stability index was 0.698 ± 0.038.

Question: With KHKSSSYANRDS [DUS3 C-terminal 12 aa] as the sequence, how does the protein stability index read?
Answer: The protein stability index was 0.6941 ± 0.00079.

Question: With KINKNGLLENIL [IES3 C-terminal 12 aa] as the sequence, how does the protein stability index read?
Answer: The protein stability index was 0.702 ± 0.019.

Question: How did the protein stability index turn out when KISFKWKKQRKR [UTP11 C-terminal 12 aa] was run?
Answer: Its protein stability index is 0.71 ± 0.01.

Question: KIYMANAPPPPV [VPS54 C-terminal 12 aa] was tested. Which protein stability index did it give?
Answer: The protein stability index was 0.706 ± 0.013.

Question: For KKFIYQQLDMFS [YOL024W C-terminal 12 aa], which protein stability index is on record?
Answer: Its protein stability index is 0.7181 ± 0.0053.

Question: KKGLTRSVKFKN [SAS10 C-terminal 12 aa] was tested. Which protein stability index did it give?
Answer: The protein stability index was 0.708 ± 0.044.

Question: Which protein stability index does the source give for KKHDWSDISQLW [OSH3 C-terminal 12 aa] here?
Answer: Its protein stability index is 0.7283 ± 0.0011.

Question: How did the protein stability index turn out when KKKSQNKSRKDD [PBR1 C-terminal 12 aa] was run?
Answer: The protein stability index was 0.7005 ± 0.0067.

Question: KKLAKSGIEFKW [NOP15 C-terminal 12 aa] was tested. Which protein stability index did it give?
Answer: The protein stability index was 0.704 ± 0.018.

Question: With KKTAIDKLITLL [AIM18 C-terminal 12 aa] as the sequence, how does the protein stability index read?
Answer: The protein stability index was 0.681 ± 0.019.

Question: With KLKRAKRKGISE [IMP21 C-terminal 12 aa] as the sequence, how does the protein stability index read?
Answer: The protein stability index was 0.693 ± 0.013.

Question: For KLRAKRLAKGGR [RPG1 C-terminal 12 aa], which protein stability index is on record?
Answer: The protein stability index was 0.696 ± 0.012.

Question: KNFRNQYSLHPP [YHR095W C-terminal 12 aa] was tested. Which protein stability index did it give?
Answer: The protein stability index was 0.7047 ± 0.0045.

Question: With KNRRGNRSGYRR [THO1 C-terminal 12 aa] as the sequence, how does the protein stability index read?
Answer: Its protein stability index is 0.703 ± 0.0025.

Question: Which protein stability index does the source give for KPIETVFDEETV [YIP3 C-terminal 12 aa] here?
Answer: The protein stability index was 0.697 ± 0.018.

Question: Which protein stability index does the source give for KQGPKNLKKTKK [TAF13 C-terminal 12 aa] here?
Answer: Its protein stability index is 0.704 ± 0.0098.

Question: Which protein stability index does the source give for KQQSWLRRVIGY [ENB1 C-terminal 12 aa] here?
Answer: Its protein stability index is 0.696 ± 0.015.

Question: KQSKKKTSFTRF [YBL028C C-terminal 12 aa] was tested. Which protein stability index did it give?
Answer: The protein stability index was 0.699 ± 0.036.

Question: How did the protein stability index turn out when KRHLTPAVELDY [PRP40 C-terminal 12 aa] was run?
Answer: Its protein stability index is 0.671 ± 0.008.

Question: With KRKFLGEHRKTL [TOK1 C-terminal 12 aa] as the sequence, how does the protein stability index read?
Answer: Its protein stability index is 0.713 ± 0.01.

Question: How did the protein stability index turn out when KRLIGIAEATLN [SEC31 C-terminal 12 aa] was run?
Answer: Its protein stability index is 0.666 ± 0.032.

Question: Which protein stability index does the source give for KRNFCPFHDAVF [PIB1 C-terminal 12 aa] here?
Answer: The protein stability index was 0.712 ± 0.01.

Question: For “KRQGRTLYGFGG [YBR009C; YNL030W C-terminal 12 aa]”, which protein stability index is on record?
Answer: The protein stability index was 0.7013 ± 0.0062.

Question: For KSGPEWIAENRD [TUM1 C-terminal 12 aa], which protein stability index is on record?
Answer: The protein stability index was 0.716 ± 0.023.

Question: With KSLWDYVKKNTE [TAF14 C-terminal 12 aa] as the sequence, how does the protein stability index read?
Answer: The protein stability index was 0.689 ± 0.046.

Question: For KSTNCCLIYDST [KKQ8 C-terminal 12 aa], which protein stability index is on record?
Answer: The protein stability index was 0.7052 ± 0.00093.

Question: How did the protein stability index turn out when KSVVVRSKEKQS [GAA1 C-terminal 12 aa] was run?
Answer: Its protein stability index is 0.7002 ± 0.0014.

Question: With KTETLSVPRILT [YBR090C C-terminal 12 aa] as the sequence, how does the protein stability index read?
Answer: The protein stability index was 0.689 ± 0.01.

Question: KTIDNLKALMKN [PFD1 C-terminal 12 aa] was tested. Which protein stability index did it give?
Answer: Its protein stability index is 0.696 ± 0.0081.

Question: Which protein stability index does the source give for KTLWSRFIEHFV [MIM2 C-terminal 12 aa] here?
Answer: Its protein stability index is 0.746 ± 0.022.

Question: With KTVGKLVLEIPQ [ZTA1 C-terminal 12 aa] as the sequence, how does the protein stability index read?
Answer: Its protein stability index is 0.689 ± 0.033.

Question: Which protein stability index does the source give for KTVIENPLEMLL [LAT1 C-terminal 12 aa] here?
Answer: The protein stability index was 0.6972 ± 0.002.

Question: For KVEFSKSETKTL [MSL1 C-terminal 12 aa], which protein stability index is on record?
Answer: The protein stability index was 0.71 ± 0.018.

Question: Which protein stability index does the source give for KVHQGKYNGPGL [AI2 C-terminal 12 aa] here?
Answer: The protein stability index was 0.69085 ± 0.00022.

Question: With KVKRLMDFLEED [NSL1 C-terminal 12 aa] as the sequence, how does the protein stability index read?
Answer: Its protein stability index is 0.678 ± 0.0098.

Question: With KWQARQRGLQRF [PMP1 C-terminal 12 aa] as the sequence, how does the protein stability index read?
Answer: Its protein stability index is 0.69535 ± 0.00066.

Question: Which protein stability index does the source give for KWVGQYPVPGDI [SHM1 C-terminal 12 aa] here?
Answer: Its protein stability index is 0.693 ± 0.0071.

Question: With KYFADLTQSITK [YBR242W C-terminal 12 aa] as the sequence, how does the protein stability index read?
Answer: The protein stability index was 0.719 ± 0.051.

Question: Which protein stability index does the source give for LADSKHCSGLHK [ASF2 C-terminal 12 aa] here?
Answer: The protein stability index was 0.6837 ± 0.0028.

Question: How did the protein stability index turn out when LAFSGGLANSIA [DSE4 C-terminal 12 aa] was run?
Answer: The protein stability index was 0.712 ± 0.00097.

Question: How did the protein stability index turn out when LALYKKAYGIEF [STP2 C-terminal 12 aa] was run?
Answer: Its protein stability index is 0.686 ± 0.031.

Question: With LAPPPQKQSSSD [GRH1 C-terminal 12 aa] as the sequence, how does the protein stability index read?
Answer: Its protein stability index is 0.758 ± 0.058.

Question: Which protein stability index does the source give for “LASEAAVGCNKS [YKL156C-A C-terminal 12 aa]” here?
Answer: Its protein stability index is 0.688 ± 0.0092.

Question: How did the protein stability index turn out when LASKHSQYTSPQ [RGT2 C-terminal 12 aa] was run?
Answer: Its protein stability index is 0.72 ± 0.0086.

Question: For “LCMSCGYVSAGK [YMR173W-A C-terminal 12 aa]”, which protein stability index is on record?
Answer: Its protein stability index is 0.697 ± 0.016.

Question: Which protein stability index does the source give for LDDIEKDLRANA [SWI4 C-terminal 12 aa] here?
Answer: Its protein stability index is 0.7 ± 0.021.

Question: With LDISASLEKIAT [FMP52 C-terminal 12 aa] as the sequence, how does the protein stability index read?
Answer: The protein stability index was 0.677 ± 0.018.

Question: For LECTPIINLFIV [MNL1 C-terminal 12 aa], which protein stability index is on record?
Answer: Its protein stability index is 0.644 ± 0.0069.

Question: With LEDSTRVYSNLM [ARP1 C-terminal 12 aa] as the sequence, how does the protein stability index read?
Answer: The protein stability index was 0.693 ± 0.007.

Question: LEEELTKIGLLP [GRX8 C-terminal 12 aa] was tested. Which protein stability index did it give?
Answer: The protein stability index was 0.706 ± 0.018.

Question: For LEKLLKTVLNTL [ORC2 C-terminal 12 aa], which protein stability index is on record?
Answer: The protein stability index was 0.69009 ± 0.00049.

Question: For LENTLKDSGVLQ [GPA2 C-terminal 12 aa], which protein stability index is on record?
Answer: The protein stability index was 0.692 ± 0.002.

Question: With LESADKKKDVKA [DUS1 C-terminal 12 aa] as the sequence, how does the protein stability index read?
Answer: Its protein stability index is 0.692 ± 0.0088.

Question: With LETDQDFLDGLL [YER034W C-terminal 12 aa] as the sequence, how does the protein stability index read?
Answer: The protein stability index was 0.708 ± 0.021.

Question: LEVTTKPREWVK [HEM13 C-terminal 12 aa] was tested. Which protein stability index did it give?
Answer: Its protein stability index is 0.687 ± 0.018.

Question: With “LFSSRNTVCAPY [YIL134C-A C-terminal 12 aa]” as the sequence, how does the protein stability index read?
Answer: Its protein stability index is 0.7258 ± 0.0047.

Question: For LFSVLVALLALL [CRH1 C-terminal 12 aa], which protein stability index is on record?
Answer: The protein stability index was 0.661 ± 0.037.
